The text below walks through data of PMC8790125, “Molecular Mechanism of SARS-CoVs Orf6 Targeting the Rae1–Nup98 Complex to Compete With mRNA Nuclear Export” (Frontiers in Molecular Biosciences, 2021).

The target in the assay is T1, Rae1–Nup98_(GLEBS) complex (UniProt P78406 1-368; P52948 157-213).
T1 construct: Deca-histidine tags are called non-cleavable; also called Rae1–Nup98 complex; Rae1–Nup98 heterodimer; not shown: His10, C-terminal, kept; His10, N-terminal, kept
Nature of the assay: ITC. Particulars: both partners purified.

T1 sequence (P78406 whole entry, chain 1 of 2): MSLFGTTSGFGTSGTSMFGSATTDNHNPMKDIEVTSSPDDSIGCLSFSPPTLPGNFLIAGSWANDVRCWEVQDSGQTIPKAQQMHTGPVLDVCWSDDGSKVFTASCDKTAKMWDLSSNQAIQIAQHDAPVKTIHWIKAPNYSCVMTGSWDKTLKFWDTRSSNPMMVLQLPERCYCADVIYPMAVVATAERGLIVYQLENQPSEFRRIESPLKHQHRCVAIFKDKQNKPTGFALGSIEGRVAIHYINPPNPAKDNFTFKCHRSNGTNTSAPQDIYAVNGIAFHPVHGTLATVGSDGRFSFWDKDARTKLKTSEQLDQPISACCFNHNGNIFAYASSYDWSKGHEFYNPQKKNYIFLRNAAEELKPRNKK
T1 sequence (P52948 157-213, chain 2 of 2): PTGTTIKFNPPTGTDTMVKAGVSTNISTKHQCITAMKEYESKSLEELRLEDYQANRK

As to SKSLTENKYSQLDEEQPMEID (also called SARS-CoV-2 Orf6 peptide) [SARS-CoV-2 Orf6CTT (21-mer peptide, residues 41–61 of SARS-CoV-2 Orf6)], binding was put at a Kd of 142 nM and the “stoichiometry N” value is 1.

As usually defined, the Kd is the equilibrium constant for the complex coming apart. Low values mean a tighter complex, high ones a looser complex. As usually defined, the stoichiometry N is the number of molecules, sites or subunits per partner or assembly.
